B1: Rab5 GDP/GTP exchange factor (Homo sapiens), Q9UJ41 (parent)
chain: MSLKSERRGIHVDQSDLLCKKGCGYYGNPAWQGFCSKCWREEYHKARQKQIQEDWELAERLQREEEEAFASSQSSQGAQSLTFSKFEEKKTNEKTRKVTTVKKFFSASSRVGSKKEIQEAKAPSPSINRQTSIETDRVSKEFIEFLKTFHKTGQEIYKQTKLFLEGMHYKRDLSIEEQSECAQDFYHNVAERMQTRGKVPPERVEKIMDQIEKYIMTRLYKYVFCPETTDDEKKDLAIQKRIRALRWVTPQMLCVPVNEDIPEVSDMVVKAITDIIEMDSKRVPRDKLACITKCSKHIFNAIKITKNEPASADDFLPTLIYIVLKGNPPRLQSNIQYITRFCNPSRLMTGEDGYYFTNLCCAVAFIEKLDAQSLNLSQEDFDRYMSGQTSPRKQEAESWSPDACLGVKQMYKNLDLLSQLNERQERIMNEAKKLEKDLIDWTDGIAREVQDIVEKYPLEIKPPNQPLAAIDSENVENDKLPPPLQPQVYAG

Variants of: B1
Conditions: with eea1_human EEA1, Q15075
Chain of eea1_human EEA1, Q15075 (Q15075 whole entry): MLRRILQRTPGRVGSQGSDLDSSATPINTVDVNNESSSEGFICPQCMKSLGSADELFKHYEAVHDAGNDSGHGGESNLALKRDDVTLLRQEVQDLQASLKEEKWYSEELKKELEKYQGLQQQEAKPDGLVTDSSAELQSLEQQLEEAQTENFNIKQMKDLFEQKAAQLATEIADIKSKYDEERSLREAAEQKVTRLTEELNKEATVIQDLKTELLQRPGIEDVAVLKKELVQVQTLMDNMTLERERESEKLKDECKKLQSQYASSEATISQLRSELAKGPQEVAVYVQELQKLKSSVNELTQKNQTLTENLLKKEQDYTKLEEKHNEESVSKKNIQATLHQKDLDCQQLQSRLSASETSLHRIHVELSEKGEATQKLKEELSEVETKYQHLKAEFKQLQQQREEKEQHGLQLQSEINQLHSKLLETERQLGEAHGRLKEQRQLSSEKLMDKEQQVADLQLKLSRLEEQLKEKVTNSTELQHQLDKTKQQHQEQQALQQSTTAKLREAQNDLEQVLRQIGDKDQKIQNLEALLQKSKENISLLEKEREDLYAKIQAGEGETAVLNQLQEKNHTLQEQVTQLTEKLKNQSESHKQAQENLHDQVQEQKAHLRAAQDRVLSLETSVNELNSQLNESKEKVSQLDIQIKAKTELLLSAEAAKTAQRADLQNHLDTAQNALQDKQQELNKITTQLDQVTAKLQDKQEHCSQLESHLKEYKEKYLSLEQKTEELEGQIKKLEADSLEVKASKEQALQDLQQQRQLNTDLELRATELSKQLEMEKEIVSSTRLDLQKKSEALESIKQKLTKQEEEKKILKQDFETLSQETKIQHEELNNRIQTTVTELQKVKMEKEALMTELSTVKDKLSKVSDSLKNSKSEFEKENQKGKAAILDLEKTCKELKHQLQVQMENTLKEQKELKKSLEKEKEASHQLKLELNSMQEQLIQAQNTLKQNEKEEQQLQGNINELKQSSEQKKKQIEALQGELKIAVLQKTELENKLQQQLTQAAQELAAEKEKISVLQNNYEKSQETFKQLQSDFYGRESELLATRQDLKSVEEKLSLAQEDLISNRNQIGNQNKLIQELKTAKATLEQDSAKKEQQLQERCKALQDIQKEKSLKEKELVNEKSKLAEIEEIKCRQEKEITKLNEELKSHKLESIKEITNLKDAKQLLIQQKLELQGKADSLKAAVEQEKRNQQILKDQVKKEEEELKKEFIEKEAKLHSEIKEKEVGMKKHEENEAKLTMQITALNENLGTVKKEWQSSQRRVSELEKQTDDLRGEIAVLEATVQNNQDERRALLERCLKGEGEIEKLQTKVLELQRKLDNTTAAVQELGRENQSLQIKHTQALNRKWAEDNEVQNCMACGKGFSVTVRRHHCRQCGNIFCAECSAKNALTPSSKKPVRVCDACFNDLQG

Row | effect of a mutation on the interaction | Variant
1 | increasing interaction | Q79L

Source: IntAct's records for PubMed 21685908
